From the DeepSol protein solubility set

Experiment: soluble on expression in E. coli; label from the status in PepcDB or PDB records

Soluble on expression in E. coli, not soluble:
MGSDKIHHHHHHMATSIETSFPDAPSTTPVLEMQGITKRFHGVSALQNVNLTIYPGEVHALMGENGAGKSTLMKILAGAYIADEGEIRINGQPLKITDPATARKAGINLIYQELNVAPNLTVTENMFMGSELRRGQFLDRKAMQLEAEQVLDSLGANFTAQTIVGTLSIAEQQQVEIARALKDKSRVLVMDEPTAALSDRESDHLFEVIRKLRSDGIAIIYISHRMEEIYALADRISVLRDGQYIGSLTRSEISPQRLVQMMVGRSMQDFYEHQRQMNPGPVVLEVRNMSDARKKIEPASFELHAGEILGLAGLVGAGRTELSRLIFGADRKASGEVFLNGKKLEINTPSDAIAAGIGYVPEDRKDQGLFLEMSARKNIAINTLKQDAKGGIVNWPSVNRLSTEAVENFNIRLANLEIRALDLSGGNQQKLLLARWLAIKPRVLMLDEPTRGVDIGAKSEIYRIMSELAAQGVAILMVSSELSEIVGMSDRVLVMREGQLVGELDGSLGKEITQEKIMHYATGASEVSAL
MGSDKIHHHHHHMATTVDTGDRRDNGKSVRRKLPRGAHAEIGNVDRDPVELLKISSEGRVRRLVPLRYGRMIESPFAFYRGSAIVQAHDLAGTPNSGLHIQICGDCHLANFGGFATPERALLFDLNDFDETSRGPWEWDLKRLAASFVVAARHLRHKQGVADDLVYQLVRSYQARMQGYGEMGILDTWYDHITFERLLGEETSPNIQRRIRRGMERAADRTSEALLPKLAERVGDKWTILDAPPAVFHVRGAHTLFDADDDWMTAKDIQAAAEKVYKEYLGTLAPDRQRLLSHFTLHDRAFKVVGVGSVGTRCMIQLMIDSHGKPMFLQIKEATRSVVARYFKGPAVSHDGRRVVEGQRLMQAASDLFLGWTKGPFGRDFYVRQLRDMKLSPQIELMDVEALGRYGALCGWVLARAHAKAGGLAAEISGYLGTSDRMAEVMVGYSNSYADQVEKDYERFVAACRSGRLEARTDADMAADFRV
MGSDKIHHHHHHMAVSELQVQSALKELIDPNTHKDYVTTKSARNIKIDGDAVSVDIALGYPAQSQLATIKQQVEDKLKTLDGVSKATANVSFKIVSHSVQRGVKLIPNVKNIIAVASGKGGVGKSTTAVNLALALAAEGARVGMLDADIYGPSQPTMLGITDKPESTDGKNLDPLIGHGIQAMSIGFLIDVETPMVWRGPMVTQALEQLLNNTNWNELDYLVVDLPPGTGDIQLTLAQRVPVTGAVIVTTPQDIALIDARKGLKMFEKVGIPIIGVVENMSLHICSNCGHEERIFGEGGGERMCRDYNVEFLGALPLDSSIRADTDSGKPSVVSDPDGRVTEIYKQIARRVAVKIGETAVDHSAKFPNIVISNT
MGSDKIHHHHHHMAWIKTVAFGDATGKLRKLYDRVTGPGGNVDNIMMAHSLRPHTMEGHMALYKNVLHHSGNELPKWVLEMIGVWVSSLNGCAYCVEHHFAGLKRLMRDDARAEAIRAAIEARDIKALPVRACEMAAMDYARKLTQAPTEMMAADLEPLRAEGLSDGHILEINQVVAYFAYANRTVLGLGCSTEGDVLGLSPGNSDDPTDWGHA
MGSDKIHHHHHHMAYIKRTIETTIENAAKMFSTVLITGARQVGKTTVLKHITEDISYLTLDDPILLLNAFEEAGSFFKSTPPPVIIDEIQYAPNLFPYIKMIADENGKRGQFYLTGSQQFKMMKNVSESLAGRIGIINLLGLSLREIKGDADFNKAFIPTESYLETRRLSAKELNYKEIWKIIYKGSMPAMYADELDWQLFYGSYTKTYLERDVRELTQVGDELKFIKFMTAMASRTSQMLNLTSIANEVGISVPTADRWLSILVSSNIVYLLKPYYNNIMKRAVKTPKLYFLDTGLAAYLTKWNSPDVIEAGAMSGAFFETFVLAEILKGYYNAGILEPALYYYRDKDAKEIDIILEENGTLYPIEIKKTANPSKEHIANFSVLDRLKDMKIGTGCVICMYDKVIHINDNNVSIPVTWL
MGSDKIHHHHHHMCIMASCLSPNWSVFDIDQSQTLQVAVQEAHARSQPLAIRGGGSKTFYGRQTPACDLLDLGGHRGIIDYAPNELFITLRAGTSLQALEAQLAEAGQMLPFEPPHFGPAATIGGTLACGFSGPRRPYAGSARDMVLGMRILNGQGEILRFGGQVMKNVAGYDVSRLMVGALGTLGVLLEVSLKVLPRPDSTVTLVWPMDPVTAVQRMNDWAGQPLPLSATAYDGEHLYIRLSGTGSAVRAAQTRLGGERLPDAEAAAFWVALREQRNDFFQGDAPLWRLAVAPATPPLPLGDQTLIEWGGGQRWLRGALDATALRQLAAEHGGHATLFRGGNRRGEVFHPLAPPLLAMQQRLKAAFDPRGILNSGRLYATL
MGSDKIHHHHHHMCRLIGYLGNAIPLDELLYKQEHSLYQQSYSPLELKSGVVCADGVGVGWYDQVGKPFIYRNTIPMWNDPNLEELSNYVQSTCTVGYARLAGIGESLDISNCQPFRSDQLLFVHNGEISNFQQTLYRPIRESLSDATYRLIKGTTDSEHIFALLVQMWQSSPDSTLFWALGATLEKLTELASEYNTSFSANLIVSDGEAIAAIRYAYRTQAPTLYWSYDALKHPNQVIVASEPLSNNQNWTAFDEQSMLFFQAQSLEPRISLLKKFSAIGV
MGSDKIHHHHHHMCRWLAYTGNPIPLETVLFRAKHSLIDQSLHSRMGATTTNGDGFGIGWYGQPDEVPFIYRCVSPAWNDRNLREAARAIRSPLFVAHVRSATDTPVQETNCHPFRRGRWLFAHNGLIRRYHTLRRDLMMRIDPGLFASIEGSTDSEVMFHLALTFGLEHDPLAALERMAGAIEDAGAHHRVDAPLNMTVCATDGEQVVAVRYSSEHDSRSLFHSTSFRHLHELYPHDPRIRAIGDDAFLVLSEPLVDLHDAWEKIPESTAIIARRGDIRQVPFQPRRST
MGSDKIHHHHHHMDDLRDSLDRIKSICSEIVVQFESSDVAESLKALQKAVNEAAKSWSGSWLGYHSRVYYNQLQPVPPGARFSQEWGLSDGLSNETRGDWCEYDFDSIYNILKSKAINFSLEQLNELANYANEEIPDLREELISIIFSCLASGEDTYLDRLKQEAELCKTSSVGEFVDYLRGGGQFFSRDRVAVLSGSQTPPHIYLQAQLLAVQSPSTVAKSLKKIANRLALHLTNKSRTYMYSSQPGTHVFIGHGHSPLWRDLKDFISERLKLPWDEFNRLPIAGINNTVRLSQMLDSAAIAFLIMTGEDEQSDLKLRARMNVIHEAGLFQGRLGFRRAILLLEEGCENFSNVDGIGYINFPRGNIKACFEDVRMVLEREGLV
MGSDKIHHHHHHMDGHRLIQPLHARTADVGGIPVNRVMPQRGRRLIGAWCFLDHAGPATFTVGAGGMRVGSHPHIGLQTFTWMLAGEIMHHDSLGNAQRIRPGELNLMTAGRGIAHTEESILESGQLHAAQLWITLPHATRHTSPRFDHYPDLPRWSEQGTDVTLLRGDFQGREAPTHAFSPLVGLDIVSPDATQLTLPARTDFEYGVLLLEGSLTIERDRFDTNEMAYLGSGLDEITLAMEAGTRALMLGGEPLNEDILIWWNFVGHSKAEIAEAQKEWEEWEAGSDRFGDVPEFDGERIMPPPIPWKVTAN
MGSDKIHHHHHHMDGSSQEGEKKKKVYEVKTFPISFALGENQENITITTQTPSKPSKEKKFHKARMLHKQGKIAEAKKYYQQLINEGFNDHRVFSNYGVILAQLGKLKEAEISTRKAIEMQPNYAEAHSNLGIILNDLGKLEEAEICQRKAIKIKPNLTGAAWNLYGLANTIKEAEERVNQVLKIDENHVEAQLHLSALKLHQGDQSLFDNLTKSTHKDHAITRSIKWVANLPKLPELFFYRWALFDSMTKKSKKDRPFYEFGVWRGASFRYLINTFKKGYGFDTFEGLPEDWHHEAQGTYSAEGIIPNIEGGEFIAGKFEDTLPTFYSKPRPMASIINFDADLYSSTLCALNCSKPVIDKDTILIFDEFIISENWEQDEYKALNEFCSKNNLTYEVLAVSYFEKQVAVKLIGV
MGSDKIHHHHHHMDINLYSDRLKLRNLLSRDWDFFLRLHLDKDVNQYIRSIEPESDIVAKFEQRKAVWLFESGDWLTLVIERIDNSQAVGLIGFRCDDAQLRRAEVGYLIAPEQQGLGFASESLLAVTDWGALQFSMHKYIGICAHENTASRKVLEKVGFVLEGTLKQNNCVDGKWSDDCYMGLLTAQRT
MGSDKIHHHHHHMDITQLKMFQTVVECGTMAKASLQLHCVPSNITTRIKQLEEELGAPLFYREGKSLKLTPSGEIFLDYCHKILALCDEAKRSIHPDAPPSGPLKIGAIESSATTRLPNLLAKYHQRYPEVSIQIITGTWKQLLVDISQHKLDGAIVAGNIEFPMLNKLSIYQEDMVLIASHSLGEIRCQEDLIGKEIFMWTEGCPYRAALEEWLKLKNISLPITSITSYATIIGCVSAGSGVALVPKSIYEQYKNLAHIQSYKFEYLAFMQNHFFWHKNVSNHKARDMFIELIKSEFCL
MGSDKIHHHHHHMDKIYVLDTNVLLQDPLSIFSFETNEVVIPAVVLEEVDSKKRYMDEVGRNARYVSKLIDKFREIGKLHESIPLENGGTFRIELNHRSFVQLQDIFVEKTNDNRILAVAKNLSLEEQEKEDGKSVILVSKDVLVRVKADAIGLKAEDYLSDRVIEVENIYSGFLEGYISKEQLDYFYEKGELPLSEIANHPFYPNQFVVMKDALGGSSSALGIVDHLGKKVKKLIFHNEQVWGIRPRNVQQIMGLELLLREDIPLVTLTGKAGTGKTLLALASGLMQTEDLGLYKKLLVARPIVPVGKDIGYLPGEKEEKLRPWMQPIFDNLEYLFNTKKPGELDAILAGMGSIEVEALTYIRGRSIPDQFIIIDEAQNLTKHEVKTILTRVGEKSKIVLMGDPQQIDHPYLDEYNNGLTYVVEKFKEQRISGHVKFVKGERSNLAQLAADLL
MGSDKIHHHHHHMDKLLFGISGIPNGSGNEKFTYETGIDYLKSIGLDAMELPFVRSVNITNKNREGILNKKHEKDFYLSAHGSYFINLNAEENEKQEASLKRIVSGADALKSVEGKSLIFHPGFYLKDSKEETFNTIKENLKKLPDIGVDYRLETTGKPTQFGSLEENVALASEVKTCKLCIDFCHLHARYNGLFKTIEDFDKVLSYVGEKLGEAALNDMHIHMSGINYGIKGEKNHLPFKESDFPYEKCIKSFVKFNIKGCIICESPLLEKDSLLLKSIYEAS
MGSDKIHHHHHHMDKYTALIHDENFSTLTLNVSRYPKSLAYWEKLLNYIVKASAPICKSTEPQLLKLIRCTYSSMLNEFPYLENYYIDFALLEYKLGNVSMSHKIFQRGLQAFNQRSLLLWTSYLKFCNNVISHQKQLFKKYETAEEYVGLHFFSGEFWDLYLEQISSRCTSSKKYWNVLRKILEIPLHSFSKFYALWLQRIDDIMDLKQLSQLTSKDELLKKLKIDINYSGRKGPYLQDAKKKLKKITKEMYMVVQYQVLEIYSIFESKIYINYYTSPETLVSSDEIETWIKYLDYTITLQTDSLTHLNFQRALLPLAHYDLVWIKYSKWLINSKNDLLGAKNVLLMGLKFSLKKTEIIKLLYSVICKLNEYVLLRNLLEKIESSYSDNVENVDDFEIFWDYLQFKTFCQNSLYSSRYSDSQSNGLLNKELFDKVWKRLSCKEKKSGQEILLNNLVQFYSKDTVEFVEKNIFQKIIEFGWEYYLQNGMFWNCYCRLIYFDTSRSYLDKRQYIVRKIWPQIDKKFAQSVLPSLTEFCESYFPEEMDTLEEMFTEEP
